Measurements as given in patent US9617326B2, “RTRAIL mutant and monomethyl auristatin E conjugate thereof” (Zhejiang University, priority 2012, dated 2017).
Like-named read-outs stand apart in the source and are kept apart here.

Assays:
Hela cells = test: In vitro anti-tumor activity (CCK-8 killing) on Hela cells; type: cell-based; settings: Hela (TRAIL insensitive type), 32-1000 ng/mL, both low and high concentrations, 96 hours, FIG. 6
Text: (§1) 4 types of cells were selected to measure in vitro anti-tumor activity of the rTRAIL mutant and the MMAE conjugate: TRAIL sensitive type (NCI-H460), TRAIL insensitive type (Hela), TRAIL resistant type (MCF-7) and normal cells (HEK293). All of these 4 types of cells had TRAIL death receptor on their surfaces.
(§2) Hereinafter, TRAIL sensitive type NCI-H460 cell was taken as an example to give detailed description of the test procedure, including the following steps:
(§3) (1) Digesting the NCI-H460 cells into individual cells, followed by diluting to 1×10^4 cells/mL, spreading the cells on 96-well plate (100 μL for each well), and culturing the cells for 24 hours under normal condition.
(§4) (2) Diluting N109C, N109C-vcMMAE and S96C-vcMMAE with culture medium respectively, and adding them into the cell plate with final concentrations of 32, 63, 125, 250, 500, 1000 ng/mL for serving as the test groups, while using standard TRAIL (114-281) as the positive control group, using the buffer (used for dissolving the test sample, diluted with the culture medium in a same manner) as the negative control group, and using the culture medium (without adding any solution) as the blank control group. All the control groups and test groups were tested in triplicate. […]

MCF-7 cells = test: In vitro anti-tumor activity (CCK-8 killing) on MCF-7 cells; type: cell-based; settings: MCF-7 (TRAIL resistant type), 32-1000 ng/mL, both low and high concentrations, 96 hours, FIG. 6
Text: as §1, §2, §3, §4

[1] = system: NCI-H460 tumor-bearing mice; settings: athymic mice with NCI-H460 tumor; for distribution of fluorescence in mice: about 50 μg Cy5-labeled conjugate via tail vein
Protocol: N109C-vcMMAE was taken as an example, and the conjugate was tracked in real-time in mice by Fluorescent labeling method to observe tumor targeting ability of the conjugate.
Athymic mice weighing 20 g were selected and 10^7 NCI-H460 cells were injected subcutaneously in the armpit of one side of the forelegs.
Cy5, as a Near-IR-activated dye, was used as a fluorescent label, so as to facilitate the fluorescence to pass through animal skin and achieve the goal of real time vital observation. In terms of concrete method of Cy5 labeling, please refer to the instruction offered by the manufacturer (Lumiprobe).
200 μL sample containing about 50 μg Cy5-labeled conjugate was injected into the tumor-bearing mice via tail vein, while equal amount of normal saline was injected into the blank control group.
Small living animal imager (NightOWLN320) was used to observe distribution of fluorescence in mice every 24 hours. […] The mice were killed after 4th day, and heart, liver, spleen, lung, kidney and tumor tissues were isolated. […] The white arrow indicates tumor site.

NCI-H460 cells = test: Cell endocytosis of the conjugate by tumor cells (laser confocal); type: cell-based; settings: 1 μg/mL
Protocol: NCI-H460 cells were taken as an example to observe behaviors of rTRAIL mutant-vcMMAE conjugate in tumor cells by laser confocal technology, including the following steps:
a) A coverslip was immersed with 1M HCl and 70% ethanol, subjected to ultrasonic treatment for 30 min, washed for 5-6 times with double distilled water and sterilized for later use;
b) Well-sterilized coverslip was placed in 24-well plate, and cells were plated at 10^4 cells/well and cultured overnight at 37° C.;
c) Administration: N109C-vcMMAE and S96C-vcMMAE were diluted respectively to a final concentration of 1 μg/mL, and the cells were treated according to step d) at different time points (1st, 4th, 8th and 12th hour), while drug-free culture medium was used for the blank control group; d) The coverslip was washed with cold PBS for 3 times and then fixed with 4% paraformaldehyde for 10 min at room temperature; e) PBS was used to wash the coverslip for another 3 times; f) 0.1% Triton X-100 was added to permeabilize for 10 min at room temperature; g) 2% BSA was added to block for 30 min after 3 times washing with PBS; h) Primary antibody incubation: rabbit anti-human rTRAIL polyclonal antibody was diluted with 1% BSA/PBS to 1 μg/mL and incubated for 45 min at room temperature; i) Secondary antibody incubation: FITC-labeled goat anti-rabbit secondary antibody was diluted 500-fold with 1% BSA/PBS and incubated for 45 min at room temperature; j) Staining cell nucleus with DAPI: after PBS washing (3 times), DAPI diluted 1000-fold with PBS was added dropwise on each coverslip (it was appropriate to just cover the cells), and the coverslip was incubated for about 2 min at 25° C.; k) Mounting: after PBS washing, one drop of Anti-fade Fluorescence Mounting Medium was added on the coverslip, then the coverslip was placed upside down on a glass slide and then sealed with nail polish around the coverslip; l) Cofocal detection: the detection result was shown in FIG. 8.

B1: N109C-vcMMAE: rTRAIL N109C mutant trimer coupled via maleimide-modified valine-citrulline linker to 1-3 MMAE molecules (conjugate)
chain: TSEETISTVQEKQQCISPLVRERGPQRVAAHITGTRGRSNTLSSPNSKNEKALGRKINSWESSRSGHSFLSNLHLRNGELVIHEKGFYYIYSQTYFRFQEEIKENTKNDKQMVQYIYKYTSYPDPILLMKSARNSCWSKDAEYGLYSIYQGGIFELKENDRIFVSVTNEHLIDMDHEASFFGAFLVG
modifications: non-natural residues
notes: rTRAIL N109C mutant trimer coupled via maleimide-modified valine-citrulline linker to 1-3 MMAE molecules
- killing ability (Hela cells): stronger killing ability than S96C-vcMMAE
- killing ability (MCF-7 cells): stronger killing ability than S96C-vcMMAE
- distribution of fluorescence in mice ([1]; 3rd day): most of the fluorescence had gathered on tumor site
- distribution of fluorescence in mice ([1]; 4th day): only the tumor site emitted fluorescence
- tumor-targeting effect ([1]; in vivo imaging over 4 days and isolated tissues): excellent tumor-targeting effect
- endocytosis by tumor cells (confocal) (NCI-H460 cells; 1 hour after administration): a lot of N109C-vcMMAE had entered the cells
- endocytosis by tumor cells (confocal) (NCI-H460 cells; 4 hours): more and more N109C-vcMMAE entered the cells and began to aggregate slowly
- endocytosis by tumor cells (confocal) (NCI-H460 cells; 8 hours): more aggregating points emerging inside the cells
- endocytosis by tumor cells and apoptosis (confocal) (NCI-H460 cells; 12 hours): aggregating points inside the cells decreased gradually and cell apoptosis began to occur
